From the supplement of paper PMC9112550, “Optimization of the antimicrobial peptide Bac7 by deep mutational scanning” (BMC Biology, 2022)

System: Escherichia coli TOP10
Test: shrunken log2 fold change of peptide-encoding DNA abundance (4.5 h post-induction vs induction); higher = less antimicrobial activity (less host growth inhibition)
Conditions: time post-induction: 4.5 h; library: site-saturation at positions 5, 18, 19, 20
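Also: peptides expressed intracellularly from a pBAD plasmid library in pooled LB shake-flask culture, induced with 0.3% L-arabinose, DNA abundance read by NGS, three biological replicates, DESeq2 with apeglm shrinkage.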

Sequence	shrunken log2 fold change
RRIRARPPRLPRPRPRPYIFPRP	-0.277
RRIRARPPRLPRPRPRPYIYPRP	-0.346
RRIRARPPRLPRPRPRPYLWPRP	0.134
RRIRARPPRLPRPRPRPYMAPRP	-0.702
RRIRARPPRLPRPRPRPYMHPRP	-0.361
RRIRARPPRLPRPRPRPYMWPRP	-0.927
RRIRARPPRLPRPRPRPYNKPRP	-0.731
RRIRARPPRLPRPRPRPYNMPRP	-0.809
RRIRARPPRLPRPRPRPYPPPRP	-0.129
RRIRARPPRLPRPRPRPYPWPRP	-0.32
RRIRARPPRLPRPRPRPYRIPRP	0.11
RRIRARPPRLPRPRPRPYSSPRP	-0.28
RRIRARPPRLPRPRPRPYSYPRP	-0.292
RRIRARPPRLPRPRPRPYTNPRP	-1.06
RRIRARPPRLPRPRPRPYVAPRP	-0.35
RRIRARPPRLPRPRPRPYVDPRP	-0.16
RRIRARPPRLPRPRPRPYVEPRP	-0.162
RRIRCRPPRLPRPRPRPACNPRP	-0.0286
RRIRCRPPRLPRPRPRPADEPRP	0.431
RRIRCRPPRLPRPRPRPAFDPRP	0.253

Sequence	shrunken log2 fold change
RRIRCRPPRLPRPRPRPAFIPRP	0.0295
RRIRCRPPRLPRPRPRPAFVPRP	0.179
RRIRCRPPRLPRPRPRPAGGPRP	0.489
RRIRCRPPRLPRPRPRPAGMPRP	0.104
RRIRCRPPRLPRPRPRPAGYPRP	-0.342
RRIRCRPPRLPRPRPRPAHCPRP	1.77
RRIRCRPPRLPRPRPRPAIAPRP	0.165
RRIRCRPPRLPRPRPRPAICPRP	0.0424
RRIRCRPPRLPRPRPRPAIEPRP	-0.384
RRIRCRPPRLPRPRPRPAKHPRP	-0.23
RRIRCRPPRLPRPRPRPAMWPRP	0.295
RRIRCRPPRLPRPRPRPAPFPRP	0.0214
RRIRCRPPRLPRPRPRPAPRPRP	0.915
RRIRCRPPRLPRPRPRPARAPRP	0.471
RRIRCRPPRLPRPRPRPARCPRP	0.477
RRIRCRPPRLPRPRPRPARMPRP	0.264
RRIRCRPPRLPRPRPRPARRPRP	0.555
RRIRCRPPRLPRPRPRPARWPRP	0.56
RRIRCRPPRLPRPRPRPCATPRP	0.16
RRIRCRPPRLPRPRPRPCAVPRP	-0.29

Sequence	shrunken log2 fold change
RRIRCRPPRLPRPRPRPCCNPRP	-0.188
RRIRCRPPRLPRPRPRPCDCPRP	-0.139
RRIRCRPPRLPRPRPRPCDIPRP	-0.0278
RRIRCRPPRLPRPRPRPCETPRP	0.0192
RRIRCRPPRLPRPRPRPCGNPRP	-0.278
RRIRCRPPRLPRPRPRPCHQPRP	0.0175
RRIRCRPPRLPRPRPRPCIRPRP	-0.145
RRIRCRPPRLPRPRPRPCIWPRP	-0.0143
RRIRCRPPRLPRPRPRPCKIPRP	-0.543
RRIRCRPPRLPRPRPRPCKKPRP	-0.205
RRIRCRPPRLPRPRPRPCKTPRP	-0.0345
RRIRCRPPRLPRPRPRPCLEPRP	-0.0191
RRIRCRPPRLPRPRPRPCLIPRP	-0.404
RRIRCRPPRLPRPRPRPCLLPRP	-1.45
RRIRCRPPRLPRPRPRPCNWPRP	-0.141
RRIRCRPPRLPRPRPRPCPIPRP	-0.52
RRIRCRPPRLPRPRPRPCRHPRP	-0.196
RRIRCRPPRLPRPRPRPCRWPRP	-0.103
RRIRCRPPRLPRPRPRPCSWPRP	0.0276
RRIRCRPPRLPRPRPRPCTFPRP	-0.856
